Reference: article PMC8203498

Target: recombinant human protease-activated receptor 1 with GST tag (GST-PAR1) (human) (UniProt P25116)
Test: SPR; BIAcore X100; GST-PAR1 (10 ug/mL) captured on anti-GST antibody immobilised on a CM5 chip (about 854 RU); running buffer 50 mM Hepes pH 7.0, 0.01% CHS, 0.1% CHAPS, 0.33 mM DOPC:DOPS; captured GST as blank; analytes injected at 125 to 1000 nM, 30 uL/min; single site model

GARASVLSGGELDRWEKIRL [F1 peptide (p17 N-terminal sequence, aa 2 to 21)]
Kd: 46 nM
